Numbering of substitutions follows the chain as printed. Names and notes keep the numbering of the source.

As a reminder, the stoichiometry N is the number of molecules, sites or subunits per partner or assembly.

The labels stand for the following.
B1: HerA helicase (Sulfolobus solfataricus), untagged (enzyme, Sulfolobus solfataricus P2, UniProt Q97WG8 1-500, looked up)
chain: MIIGYVIGQATTQEALILAERPVRLGTYVVLEYDNVKALGLITNVTRGSPMLDDNMNDIEIVQRLKQFNNSIPVYTKAKVKMLCDMNNHFLMPDIPPFAGTPAREAEDEELKSIYSQDGQIRIGSLIGKNVEVKLNINSFARHLAILAATGSGKSNTVAVLSQRISELGGSVLIFDYHGEYYDSDIKNLNRIEPKLNPLYMTPREFSTLLEIRENAIIQYRILRRAFIKVTNGIREKLKEGQIPFSTLNSQFYELMKDELETQGNSDKKSSAKDEVLNKFEEFMDRYSNVIDLTSSDIIEKVKRGKVNVVSLTQLDEDSMDAVVSHYLRRILDSRKDFKRSKNSGLKFPIIAVIEEAHVFLSKNENTLTKYWASRIAREGRKFGVGLTIVSQRPKGLDENILSQMTNKIILKIIEPTDKKYILESSDNLSEDLAEQLSSLDVGEAIIIGKIVKLPAVVKIDMFEGKLLGSDPDMIGEWKKVEESEKIAKGFADFGTEIGD
B2: NurA nuclease (Sulfolobus solfataricus), untagged (enzyme, Sulfolobus solfataricus P2)
chain: MIRKIYDKLVESHNEIKNQIYNIANYLKQEIQDKVNEYWNEYVINHEQSETCKFVAIDGGSFGRPMRIGIVYAVGAESVIGDNKGVKTLSEDGQIGIFKPGNDAQERISLLMEALELSLALRDGSKGDYILMDGSLSKKIGNKVDIQQFSDEELKLIRNVDLNGIISIKDERKMRDLLMLLNQFLVSKIIEEYDGNVLWISKVSRGRDLFGTDYPDITVLELFTEKRGFSKLIIKNIDIEKISEIPEIEVLRKMEYTTFYTRLDNGKRVIRVDIVGRVDEKIVKEIMDRLSGVSIKGYPFPLLKAHMDVRFSAMDREKIIKLVGSKLHKDIEWWPSQFY
B3: NurA F300E (enzyme, Sulfolobus solfataricus P2)
chain: B2 chain with F300E
B4: NurA I295E/F300E double mutant (enzyme, Sulfolobus solfataricus P2)
chain: B2 chain with I295E, F300E
B5: NurA K202A (enzyme, Sulfolobus solfataricus P2)
chain: B2 chain with K202A
B6: NurA I295E (enzyme, Sulfolobus solfataricus P2)
chain: B2 chain with I295E

The data set “SEC” concerns the molecule itself. The experiment in a line: SEC. For orientation: Size exclusion chromatography separates by hydrodynamic size, large species first.
The data set “crystal structure” deals with the molecule itself. Description: crystal structure.
In data set [1] the target is B1. The experiment in a line: SEC.

Take B1: the “stoichiometry N” value in “SEC” amounted to 6.

Consider B2, for which, in the data set “crystal structure”, the “stoichiometry N” value amounted to 2.

For B3, in “SEC”, the “stoichiometry N” value came out at 2.

As for B4, in “SEC”, the “stoichiometry N” value was 2.

With B5, the binding result in data set [1] is reported as “binds”.

On to B6, for which, in the data set “SEC”, the “stoichiometry N” value amounted to 2.

The values above are taken from publication PMC3326311 (Nucleic Acids Research, 2011).
